{"source": "paper doi:10.1101/783373", "about": "(bioRxiv, 2019)", "binders": {"B1": {"name": "MEIG1 (human), His6 tag cleaved (natural protein)", "chain": "MASSDVKPKSVSHAKKWSEEIENLYRFQQAGYRDETEYRQVKQVSMVDRWPETGYVKKLQRRDNTFYYYNKQRECDDKEVHKVKIYAY"}}, "key": {"[1]": {"molecular_target": "PACRGΔ1-69 Y108ϕ (p-iodo-L-phenylalanine derivative) (human, UniProt Q96M98-2 70-257, Y108ϕ, p-iodo-L-phenylalanine (ϕ) at 108)", "assay": "SEC"}, "[2]": {"molecular_target": "PACRGΔ1-69 Y189ϕ (p-iodo-L-phenylalanine derivative) (human, UniProt Q96M98-2 70-257, Y189ϕ, p-iodo-L-phenylalanine (ϕ) at 189)", "assay": "SEC"}}}
{"binder": "B1", "values": [{"measurement": "binding result", "setting": "[1]", "result": "binds"}, {"measurement": "binding result", "setting": "[2]", "result": "binds"}]}
